Data taken from patent US20140221623A1 (Ablynx, published 2014).
Where “and” joins values, the source holds several entries; their conditions need not be identical. Equal entries are not always repeated. Where two headings read alike, the source gives them in different places. Blank lines part the entries; values can stand above or below the binder they belong to.

What was measured:
[1] = target: T1, Human soluble IL6-R (human, UniProt P08887 20-358); assay: SPR (Biacore 3000), IL6-R on CM5 chip
T1 construct: Bought soluble receptor; biotinylated in some Alphascreen assays; also called sIL6-R; hIL-6R
T1 sequence (looked up): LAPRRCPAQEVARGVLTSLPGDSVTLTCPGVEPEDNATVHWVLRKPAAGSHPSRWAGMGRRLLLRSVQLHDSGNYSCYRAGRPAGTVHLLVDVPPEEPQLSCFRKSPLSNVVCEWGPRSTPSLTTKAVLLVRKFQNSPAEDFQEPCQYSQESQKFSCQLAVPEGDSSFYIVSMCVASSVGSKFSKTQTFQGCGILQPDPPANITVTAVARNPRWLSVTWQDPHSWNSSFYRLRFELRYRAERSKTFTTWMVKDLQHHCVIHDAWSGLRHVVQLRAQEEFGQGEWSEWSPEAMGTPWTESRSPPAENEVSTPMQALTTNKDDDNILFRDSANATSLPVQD

[2] = target: T1, Human soluble IL6-R; assay: Alphascreen, 100 nM Nanobody; competitor Reference-Fab on beads
[3] = target: T2, IL6-R on U266 cells (human, UniProt P08887 20-468); assay: cell-based or functional assay
T2 sequence (looked up): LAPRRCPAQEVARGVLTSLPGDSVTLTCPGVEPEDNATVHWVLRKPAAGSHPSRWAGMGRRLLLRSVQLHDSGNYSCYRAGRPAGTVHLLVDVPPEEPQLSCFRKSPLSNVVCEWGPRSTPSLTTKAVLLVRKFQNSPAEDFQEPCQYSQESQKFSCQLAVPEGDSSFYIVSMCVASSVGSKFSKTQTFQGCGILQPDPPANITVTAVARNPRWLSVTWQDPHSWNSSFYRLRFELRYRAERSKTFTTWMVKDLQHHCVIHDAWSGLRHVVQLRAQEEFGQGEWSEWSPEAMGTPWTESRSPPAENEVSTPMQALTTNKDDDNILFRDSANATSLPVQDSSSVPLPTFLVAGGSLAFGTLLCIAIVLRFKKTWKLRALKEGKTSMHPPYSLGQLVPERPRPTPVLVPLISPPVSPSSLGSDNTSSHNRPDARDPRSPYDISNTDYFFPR

[4] = target: T2, IL6-R on U266 cells; assay: cell-based or functional assay; remark: listed apart in the source
[5] = target: T1, Human soluble IL6-R; assay: SPR (Biacore), off-rate
[6] = target: T1, Human soluble IL6-R; assay: SPR (Biacore 3000), IL6-R on CM5 chip; remark: listed apart in the source
[7] = target: T2, IL6-R on U266 cells; assay: cell-based or functional assay; remark: listed apart in the source
[8] = target: T1, Human soluble IL6-R; assay: SPR (Biacore 3000), IL6-R on CM5 chip; remark: listed apart in the source
[9] = target: T1, Human soluble IL6-R; assay: SPR (Biacore 3000), IL6-R on CM5 chip; row without label, read as kd

Kd [1]: 0.26 nM
koff [1]: 9.42e-05 s⁻¹ and 0.00015 s⁻¹
kon [1]: 365000 M⁻¹ s⁻¹
% binding retained in competition with Reference-Fab [2]: 50%
IC50, XG-1 proliferation with 1 mg/mL human serum albumin [3]: 0.099 nM
IC50, XG-1 proliferation [4]: 0.089 nM
koff [5]: 0.00015 s⁻¹
Kd [6]: 0.2 nM
koff [6]: 0.000112 s⁻¹
kon [6]: 536000 M⁻¹ s⁻¹
IC50, TF-1 proliferation [7]: 0.545 nM
B1: IL6R04 (VHH)
VHH: EVQLVESGGGLVQAGGSLRLSCAASGFTFDDYDIGWFRQAPGKEREGVSGISSSDGNTYYADSVKGRFTISSDNAKNTVYLQMNSLKPEDTAVYYCAAEPPDSSWYLDGSPEFFKYWGQGTQVTVSS
notes: also called PMP32C9; PMP 32 C9

Kd [8]: 0.9 nM
koff [8]: 0.00031 s⁻¹
kon [8]: 230000 M⁻¹ s⁻¹
koff [9]: 0.000213 s⁻¹
B2: IL6R88 (VHH)
VHH: EVQLVESGGGLVQPGGSLRLSCAASGFTFDDYGMSWVRQAPGKGTEWVSAISWNGNNTYYTESMKGRFTISRDNAKNTLYLQMNSLRPEDTAVYYCVKGSTAIVGVPPTYPDEYDYWGQGTLVTVSS
notes: Humanized variant of IL6R13
